Measurements published in the nanobody polyreactivity screen of Harvey et al. (2022).

Assay: yeast display, Sf9 membrane polyspecificity reagent, FACS + sequencing; frameworks hold sequencing errors
How it was run: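 Synthetic nanobody libraries on Saccharomyces cerevisiae BJ5465 were galactose-induced for 36–48 hours, stained 1 hour at 4 °C with 10% biotinylated, detergent-solubilized Sf9 membrane reagent and enriched on streptavidin microbeads. FACS then separated cells into low and high (top ~1%) gates by anti-HA (expression) and streptavidin (reagent binding) fluorescence. Genes were colony-PCR amplified, MiSeq 2 × 250 sequenced and CDR-length filtered. A clone's polyreactivity label is that of its gate of origin.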

| Sequence | polyreactivity (PSR sort gate) |
| --- | --- |
| QVQLVESGGGLVQAGGSLRLSCAASGYIFSYYAMGWYRQAPGKERELVAAITSSGGRTYYADSVKGRFTISRDNAKNTVYLQMNSLKPEDTAVYYCNRDYSSYDTEDYWGQGTQVTVSS | high polyreactivity |
| QVQLVESGGGLVQAGGSLRLSCAASGYIFTDKVMGWYIQAPGKERELVAAITYSAASTYYADSVKGRFTISRDNAKNTVYLQMNSLKPEDTAVYYCATEYYIGVNYRGDYWGQGTQVTVSS | low polyreactivity |
| QVQLVESGGGLVQAGGSLRLSCAASGYIFTPYAMGWYRQAPGKERELVAAITGSGSSTYYADSVKGRFTISRDNAKNTVYLQMNSLKPEDTAVYYCAADSYGFYGYYYYELEYWGQGTQVTVSS | low polyreactivity |
| QVQLVESGGGLVQAGGSLRLSCAASGYIFTRNAMGWYRQAPGKERELVATISSRGGRTYYADSVKGRFTISRDNAKNTVYLQMNSLKPEDTAVYYCAATPWYRTRTYDYWGQGTQVTVSS | high polyreactivity |
| QVQLVESGGGLVQAGGSLRLSCAASGYIFVHYVMGWYRQAPGKERELVAAISSSGDRTYYADSVKGRFTISRDNAKNTVYLQMNSMKPEDTAVYYCAARYSDTSTNRYYYWGQGTQVTVSS | high polyreactivity |
| QVQLVESGGGLVQAGGSLRLSCAASGYIFVRNAMGWYRQAPGKERELVAAISGSGGSTYYADSVKGRFTISRDNAKNTVYLQMNSLKPEDTAVYYCAADYATVTWRGIAYDYWGQGTQVTVSS | low polyreactivity |
| QVQLVESGGGLVQAGGSLRLSCAASGYIFYDNAMGWYRQAPGKDREFVSTYYADSVKGRFTISRDNAKNTVYLQMNSLKPEDTAVYYCAAVYSHEGYCWGQGTQVTVSS | low polyreactivity |
| QVQLVESGGGLVQAGGSLRLSCAASGYIFYENAMGWYRQAPGKERELVAAIRFTGGSTYYADSVKGRFTISRDNAKNTVYLQMNSLKPEDTAVYYCSKSYPDTQRYQYPRGWELDYWGQGTQVTVSS | low polyreactivity |
| QVQLVESGGGLVQAGGSLRLSCAASGYIFYEYAMGWYRQAPGKERELVAAISRRGGRTYYADSVKGRFTISRDNAKNTVYLQMKSLKPEDTAVYYCATRVIYGHSVGYWGQCTQVTVSS | high polyreactivity |
| QVQLVESGGGLVQAGGSLRLSCAASGYIFYFNAMAWYRQAPGKEMELVAVISDRDDSTYYADSVKGRFTISRDNAKNTVYLHMNSLKPEDTAVYYCAADGDTYYNYYHWGQGTQVTVSS | low polyreactivity |
| QVQLVESGGGLVQAGGSLRLSCAASGYIFYRNAMGWYRQAPVKEREFVAAISSSGVSTYYADSVKGRFTISRDNAKNTVYLQMNSLKPEDTAVYYCAASYLTWKRRYDYWGQGTQVTVSS | high polyreactivity |
| QVQLVESGGGLVQAGGSLRLSCAASGYIIWDYAMGWYRQAPGKEREFVATISRSVGSTYYADSVKGRFTISRDNAKNTVYLQMNSLKPEDTAVYYCAAVTWGEGFDYWGQGTQVTVSS | low polyreactivity |
| QVQLVESGGGLVQAGGSLRLSCAASGYILDRNAMGWYIQAPGKEREFVAVISWGGTRTYYADSVKGRFTISRDNAKNTVYLQMNSLKPEDTAVYYCARYPYYYGYAGRYDYWGQGTQVTVSS | high polyreactivity |
| QVQLVESGGGLVQAGGSLRLSCAASGYILPHNAMGWSRQAPGKDGEMVAAITSSGGSTYYADSVKGRVTISRDNAKNTVYLQMNSLKPEDTAVYYCNTDQYSPYEYSSFDSWGQGTQVTVSS | low polyreactivity |
| QVQLVESGGGLVQAGGSLRLSCAASGYILYANAMGWYRQAPGKERELVASITFGDDSTYYADSVKGRFTISRDNAKNTVYLQMNSLKPEDTAVYYCNADHKVEVEDDYWGQGTQVTVSS | low polyreactivity |
| QVQLVESGGGLVQAGGSLRLSCAASGYILYGNTMGWYRQAAGKERELVAVISGGGSTNYADSVKGRFTISRDNAKNTVYLQMNSLKPQDTAVYYCAVKTNQAGYDYWGQGTQVTVSS | low polyreactivity |
| QVQLVESGGGLVQAGGSLRLSCAASGYISNAMGWYRQAPGKERELVAAISRSGGSTYYADSVKGRFTISRDNAKNTVYLQMNSLKPEDTAVYYCAGDSTYHARRLDYWGQGTQVTVSS | low polyreactivity |
| QVQLVESGGGLVQAGGSLRLSCAASGYISWAYVMGWYIQAPGKERELVAAISSGTSTYYADSVKGRFTISRDNAKNTVYLQMNSLKPEDTAVYYCAAYYYSYPTNGGYGYWGQGTQVTVSS | low polyreactivity |
| QVQLVESGGGLVQAGGSLRLSCAASGYIVLVYAMGWYRQAPGKERELFASITRGTRTYYADSVKGRFTISRDNAKNTVYLQMNSLKPEDTAVYYCAAEHSGYPVAFYITGYGYDYWGQGTQVTVSS | low polyreactivity |
| QVQLVESGGGLVQAGGSLRLSCAASGYIYAYYAMGWYRQAPGKERELVAAITGRGDTTYYADSVKGRFTISRDNAKNTVYLQMNSLIPEDTAVYYCNAEKPTYYYVPGKYDVDYWGQGTQVTVSS | low polyreactivity |
| QVQLVESGGGLVQAGGSLRLSCAASGYIYDYNAMGWYRQAPGKERELVAAITFRDGSTYADSVKGRFTISRDNGKNTVYLQMNSLKPEDTAVYYCNRRSQVHSHSKHDDWGQGTQVTVSS | low polyreactivity |

| Sequence | polyreactivity (PSR sort gate) |
| --- | --- |
| QVQLVESGGGLVQAGGSLRLSCAASGYIYGVYAMGWYRQAPGKERELVAAISYGVGSTYYADSVKGRFTISRDNAKNTVYLQMNSLKPEDTAVYYCAAEDTQVRWSPVRPLEYYCGQGTQVTVSS | low polyreactivity |
| QVQLVESGGGLVQAGGSLRLSCAASGYPFGKYAMGWYRQAPGKERELVASIRSGGSTNYADSVKGRFTISRDNAKNTVYVQMNCLKPEDTAVYYCNTRYRYQYGYDYWWQGTQVTVSS | high polyreactivity |
| QVQLVESGGGLVQAGGSLRLSCAASGYSFYKYAMGWYRQAPGKERELVAAISYSGGSTYYADSVKGRFTISRDNAKNTVYLQMNSLKPEDTAVYYCAAVGATKGLRYGYWGQGTQVTVSS | low polyreactivity |
| QVQLVESGGGLVQAGGSLRLSCAASGYTFAGNAMGWYRQAPGKERELVAVITYSGGSTYYADSVKGRFTISRDNAKNTVYSQMNSLKPEDTAVYYCNAVRDRYASDYWGQGTQVTVSS | low polyreactivity |
| QVQLVESGGGLVQAGGSLRLSCAASGYTFAPYVMGWYRQAPGKERELVARISNNGGSKYYADSVKGRFTISRDNAKNTFYLQMNSLKPEDTAVYYCAADVGLIYFRYYYCGQGTQVTVSS | low polyreactivity |
| QVQLVESGGGLVQAGGSLRLSCAASGYTFARYAMGWYRQATGKERELVAANTSGDRTNYADSVKGRFTISRDNAKNTVYLQMNSLKPEDTAVYYCNATLYSYDASDYWGQGTQVTVSS | low polyreactivity |
| QVQLVESGGGLVQAGGSLRLSCAASGYTFASYTMGLYRQAPGKERELVATISRGGGRTYYADSVKGRFTISRDNAKNTVYLQMNSLKPEDTAVYYCATRLYPHQYYYWGQGTQVTVSS | high polyreactivity |
| QVQLVESGGGLVQAGGSLRLSCAASGYTFDLYAMGWYRQAPGKERELVADISSGGSTNYADSVKGRFTISRDNAKNTVYLQMNSLKPEDTAVYYCAVDADRSLFGQYYVSEYGGGYWGQGTQVTVSS | low polyreactivity |
| QVQLVESGGGLVQAGGSLRLSCAASGYTFDYNAMGSYRQAPGKERELVADITGSGASTSYADSVKGRFTISRDYAKNTVYLQMNSLKPEDTAVYYCNADDSYFYELYGYWGQGTQVTVSS | low polyreactivity |
| QVQLVESGGGLVQAGGSLRLSCAASGYTFESYTMGWYRQGPGKERDFVAVISSSDTSTSYADSVKGRFTISRDNAKNTVYLQINSLKAEDTAVYYCAAYSSPYYITYYWYNYDYWGQVTQVTVSS | low polyreactivity |
| QVQLVESGGGLVQAGGSLRLSCAASGYTFFFNVMGWYRQAPGKERELVAAISYSGGSTNYADSVKGRFTISRDNAKNTVYLQINSLKPEDTAVYYCNARTVSRNGYQDDYWGQGTQVTVSS | low polyreactivity |
| QVQLVESGGGLVQAGGSLRLSCAASGYTFGFYALGWYRQAPGKERELVAAITVSGGSTYYADSVKGRFTISRDNAKNTVYLQMNSLKPEDTAVYYCAAEVWFYSTFLYDYWGQGTQVTVSS | high polyreactivity |
| QVQLVESGGGLVQAGGSLRLSCAASGYTFGNYAMGWYRQAPGKERELVAGISWSGGSTYYADSVKGRFTISRDNAKNTVYLQMNSLKPEDTAVYYCATRVQGYHNGWYDYWGQGTQVTVSS | high polyreactivity |
| QVQLVESGGGLVQAGGSLRLSCAASGYTFGSNAMGWYRQAPGKERELVAAISTNGGRTNYADSVKGRFTISRDYAKNSVYLQMYSLIPEDTAVYYCNTRLRVRYYLSGFDYWGQGTQVTVSS | high polyreactivity |
| QVQLVESGGGLVQAGGSLRLSCAASGYTFGWYAMGWYRQAPGKERELVAAITSDGSTYYADSVKGRFTISRDNEKNTVYLQMNSLIPVDTAVYYCAADATFDSDWGQGTQVTVSS | low polyreactivity |
| QVQLVESGGGLVQAGGSLRLSCAASGYTFGYYTMGWYRQAPGKERELVASIDSGGGTYYADSVKGRFTISRDNAKNTVYLQMNSLKPEDTAVYYCAARSAILKSGYLMDYWGQGTQVTVSS | low polyreactivity |
| QVQLVESGGGLVQAGGSLRLSCAASGYTFGYYTMGWYRQAPRKERELVASIDSGGGTNYADSVKGRFTISRDNAKNTVYLQMNSLKPEDTAVYYCAAESPLYWVDDFESGWRYYYWGQGTQVTVSS | low polyreactivity |
| QVQLVESGGGLVQAGGSLRLSCAASGYTFHGNAMGWYRQAPGKERELVAAISRNGGRTYYADSVKGRFTISRDNAKNTVYLQMHSLKPEDTAVYYCNASKFYGVRFKYDYWGQGTQVTVSS | high polyreactivity |
| QVQLVESGGGLVQAGGSLRLSCAASGYTFIDNAMGWYRQAPGRERELVAAISDSAGDTYYADSVKGRFTISRDNAKNTVYLQMNSLKPEDTSVYYCAARGYLRGEQLYVFIRYDYWGHGTQVTVSS | low polyreactivity |
| QVQLVESGGGLVQAGGSLRLSCAASGYTFIDYAMGWYRQAPGKETELVAAITRGGRTNYADSVKGRFTISRDNAKNTVYLQMNSLKPEDTAVYYCAAALRRRRADFDYWGQGTQVTVSS | high polyreactivity |
